Measured values published in the NTF2 design screens of Basanta et al. (2020).

Assay: protease stability score; higher = more stable; yeast display proteolysis, trypsin and chymotrypsin;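 also: log10 excess protease needed over predicted unfolded state with 0 meaning unfolded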

| Sequence | protease stability score |
| --- | --- |
| DEDFWERVESMLRLWKHGNEDEWSKNADPNVRYVYGEKVVTGREQAKHMFRKVKDEIRFTFEFKRVRIQGDTIEAKFEFRADRNGKPRSANATVTIRFEGDKVHDNDVKSQS | 0.42 |
| DDEAKDVVDTFMHAVRFGDPDKVDRNIDKDVRLRYGDTEVHGREDAKTYIEDLRDESRVKINEYSATAHNGKADLDADMSFTRNGQPRKRKMKVTAEVHNGHIKELDVQWRP | -0.313 |
| DEENVKQAKKFADAMRHGDPEKLAKLADENAKLVIGDKTVHGRDDLRRERKKLNEHSRQHVDVKSIEAENGRVDVTASMTLSHNGKPDQVHVKIHMRITNGQIEEVHVNYKP | -0.492 |
| DQEKLETLARQVFDAFREGDEETFRRLADPNVTAVYGDQKYRGRERVAKWLKDLANQIDHLQLNDVTIQGEKMHFDATVRINGKNRKLVMIVEAENGTLKRVVLSHG | 0.166 |
| DDERVQEQAKDFLKVVKEGNEEDLTKLFDPNASARYGDKTYHGREKVATAVAELAKKVDHFRVEHVEASGNKLHIDAYFQVNGNRRRIRFFIEIRNGKINTVIITSG | 1.62 |
| DEEQTLRERFNTLKRAQDHNDEEDLRRMMDENVKVRIGDEDVHGRETANEQFARMLRRVDHVRLRLKTMHVHGEKYQFRFELQLTVNGRHEHRDVRIRFDNVNGRTNIVEMEVG | 0.35 |
| DDSVMTAVKELLTNIQSGDPDKIQRYLDPNARMQVGDKEIHGRENIAKEIHDQNNEMEVDIEVKHVEVTGDTAIVHADVQEFHNGRPDTFHLVVRAKQDNGKMTSVVFEKRK | -0.268 |
| DESQQKHLTRLLEDNDFDRLAELADKHVRVEYGDQSYQGRETFQEMQEKLKKRADHLTYRSIDNQGDKIKVDFVLNVNGKDVRLQFDFRFNNGHIKEMTITATSEENLHKFEEALS | -0.094 |
| DEKKYEELLREVQKYLYQGNYEEAQKVLAPNVVFEVGDYKMNGLEQVMKYYKKVKDRGAEIHVEEMEVTGHKARVVYKLHVGGRTIEVTAEVKVEDERVKKARVEVSEEYVKHVQHG | 1.61 |
| DNKERAEDWFRHMTEIWKQNDPDELQNNADPNVRVDVGDKQVQGRDKYKTQMETFKNRADHISIELKNIDVQGERIVVNFEATYDVNGRKEDKTAHILARVHNGHIVIKEVKNG | -0.073 |
| DQEAAQDMRQWINAWNQNNPRKLRKLVDENARINIGEWHLQGRERIHKFAEKLIHEMDVQFSIKSFHVQGNKIKANLRIVANINGRPHEVNANLVVIVHNGHIKEIKATLDEDQIRHLNS | 0.648 |
| DERWKEKFEQMVRDQKTGNEDEVAKYFDKNAEIKVGDQRFHGREQLREHLREQRRQMRVDIDIKHVDVKGNHITVEYEFRENHNGRPTRRKATLRAEYHNGKIQRMRIDKSG | 1.33 |
| DERKKVEDVARHWVEAFKEGDKDRLTSLMDENVTVKVGDKQVHGSEELLEDMTNKIKQHDHVDAKILSVTFHGDEAEVDVEVRLNHNGKNRHDRYVMVMRVHNGTLRLKKLTQK | 1.24 |
| DEEEHAKQFLDKMHRAFENNNKDEVRKLADENARFEYGDKTYHGDEEFAKWMREIRERVDRVEMDLRSIEREGEKLNIRFEVKYKHNGNSDTQRWVFVIKHHNGDYVIEKLREQ | 1.22 |
| DQHAKRLFDEVVSAIKDGDPHQVKKQLDKNVRARVGDKTISGRETFAQQRKTERDEIEWDVEDYKADVNGDHIKVDMKVKSEHNGRPTSDKIDVDVQWHNGHVVRMEFKETR | -0.392 |
| DETHLKLLEHFFKQWMTGNQQELRSLADPNVEYVYGEHRVRGREQMAKDLVRELHEMTISMRSVTSDIRGDQAVVTVNFQQDKNGEPDEVNVKMRAEVHNGRIKSMNAKFHQ | -0.287 |
| DEKRLTELLEVMKHGDFDRLANLMDKDVRIEYGDKSVRGREQAQHLMEKQKKRADHVEWKEYHFQGDTVSVRLVVRINGKEVEYHQTYRVNNGKITDMEQRARDEDDERQLRRVEG | -0.093 |
| DEEFNKVLEEALHAMHKGDPDKLNKNLDEDAKIKYGDKTVHGREDATKLLETIVKNARIQIDSFRVTSRGEKAVADVRLRYRINGKPIDVKMIIYAKNDNGRIKEVEYKIDPDELRKVEG | 1.28 |
| DENHLKEVAEEYNKVLNNGDPDKHVEQVDKDVDVKVGDKTYHGREDDKKWMEHFVERVDHLEVKRVEVRGDKVRIDMVVNVNGDNVKMQVNINLHNGRVQEVSVNPDQLEKFKQ | 0.22 |
| DEEDHKKILQKIADVYQRGNPNQQRDLMDENARVVIGNTKFHGREQAMEAAEERRRQVDRIQLTSIDVHGNKFHIRVTLDINGKTVDIHIDVEVHNGKIKDVQVDPRAEKFFKG | 0.202 |
| DEETQNTRMEEFFKALKTGDEDRAVELADENVKIEIGDRSVSGREVVRHYVQDFQRRVDHNEIKSMRVHNGRAEVTMVVNHNGTTDTRVVHLEAENGRVRRISVDHP | 0.448 |
| DEDKMLKVAKEAVEAITKGNAEQIKKVGKEGVQVTFGDEKYHGPDQLEEYVKKVKDQGNHIEYKEQEFKGDTATVKTEAEKGDQKVTFEVHYQVKGNKLDRLEVRFDKEQQKKFEQS | -0.256 |
| DDDQQRQAEKIVRAIRHGNEQEVDELVDENVRIEYGDKVVHGRSQLRKKMQDEKRHIRQDIKVDTVKEDGDKALIHFKNNFTVNGTPTTNTYSYEVEFTNGRAKELRIRVDPQEVRKQEK | -0.118 |
| DEEQEARDQIKKYLDIFRTGDPDQAKKLFDKDAEVRIGDKHVRGREQISDFFKKLLHKADHVEYTIQDYDVHGDKVTVHLTVVINVNGDERRNTMVIVIKVQGEKERVQSVRVG | 1.09 |
| EEKNQEHAEQVFRAYKDGDPNQIQRLLDPNAHARIGDKQLHGREQAREIMHRLRRHLQMDLKLQDVKAEGDKLQLNARAKHDDNGRPNDVKITITFDLQNGRIKSMSVKMSG | 0.022 |

| Sequence | protease stability score |
| --- | --- |
| DEEDEDWAEKVATTGNFDEAARDADQNATVKVGDKTWHGREEVTRAMDLLEKQADHVRVSRFKVENGEVNFHVVIEFNGNEIDVTANARFRNGRLTYFSIDARSEHESKSLQKLLE | 0.497 |
| DEDKQLHELFERLVEAIRNGDPKKYQDNADENAKIRVGDKEYTGREQLEKLVEDIRKDVDHLEVDFKRVKVEGDKATAIVKVRANFNGKNDDTMYQYQAKIHGDKIHVVNVQQS | 0.165 |
| DEEASKRFEKFQHLLRDGNEDRVQKLVDPNVKFDLGSTSLHGMEEVARTLVQRYRSIRIRQEIDTYEVKGDTVRFKQKVQWNINGQPFSDHITFEAHQTNGKFSHVVIRIDPQLLEELRK | 0.503 |
| DEQVLRVLNEYLEDLKRNNEERLRKLADPNVKFQVGDKTLHGMEDAVNHWRHLLDHMELRIDITEVNVSNGRAVVNARASQNVNGRPNDNEVQIVAEAHNGTLKFVEWRFDPDRQRKIDS | 0.114 |
| EDDRQRKFAKHANKVMETGDPREMEKLADENVRVVVGEKDVHGRERAQEWAKELSDRVDQIRIKDVDVDGNKVVIDLIVDHNGRQSTVTVDIEFHNGRAKSVTMHEK | -0.244 |
| EEEVEDQAKKYAKALHDNDPKTLSKLADKDAEFRYGDHQFHGREEVEKHWEKELKEIEVDWRVVDVKAHNGQVRIRFQAHRHHNGDPKNDNRKASARVTNGRIKKIEWVEDH | -0.059 |
| DEEQNEHFSKVLQHGDFDRLAELMDPNAKAEVGDKTVHGREEFQRWIEHFKRQVDHIQYDRIDYHGNEIHASVRVHVNGNTIEFNVSLEFKNGRVTSFMMKARTKDDEDELRRLQS | 1.47 |
| DEDAVRKAIELFKQQETGNPEEVKKLADPNARMVVGDKTFTGMDTINEHLRKLRKEARIRNDIKRYEVNGDKATIEFRQERDHNGRPDTHLVKITIKVTNGRVKVIEIQDKS | 0.175 |
| DEREAENARNYQENQKTNNPQKLQELVDPNVHWQVGDKSYKGRETQKKEMDNKRNHIREHIEHVEVRSHGDKVEAKYTAYADINGDPVRMRFDQVMVVHNGRLTEVNVDMSEDQKRKQES | -0.46 |
| DDRNQAEKQVDEMRKIAKTGDEDRMADLFIDNPRFNVGDETYHGREQVVKYFRDTFRQVDHMHITLRRLSVHNGRVKAEFDVTLNRNGRETKDIFVVIQVKHNGTLRIESVHQK | 0.781 |
| DDDEIEKIARQLVKALQKGDFKHFVELMDKDVRLEYGDKEVHGREQAKQAMKELAERVDHVQLDDYKVHNGTAEIRLKLNFNGKSADVVFDMRIEDGRVKKIVIRYRSEEHRKHIDT | 1.24 |
| DENAERVLREIVKALEQGDPDRWKQNVDPNVKFRVGDKDVHGREEIVKTLSSLHDQIRFHVKFEHMDNQGDKIRADARVHQNVDGRPLSSSVVVRLTVHNGRVQEMRMNMDEHYVRDEQK | 0.068 |
| DEELQEEIEKFWKQLEFGNEDSLEKLMDPNAEMRVGDHTLHGRDSIAKELRRRQEEQRVDIHSYKLSAHNGRVTVNIDATFNHNGNPDRKIQRASLEISNGKLKRMDVRDEQ | -0.046 |
| DDDVMRRLLKWVKNGDWDVLAENADPNVRVNIGDFRVHGREQFKEWADKLHKKVDHFHYRDVKVNGDRVRFDFIEHFNGKTIDMDMTARAHNGRITSLDVNVRSEDDKHAFKELVS | 1.1 |
| DEKDQEQILRELAEIMKSGDEHEMENLADENVKVKIGDKTLKGKEQFRHQLKRERDRVDHLKILDMEAQGDRFIIRWQEEFNGQTRRMQVDIHIKNGKIKSAEYRHQ | 0.579 |
| DEDALTRLREFDDNVRKGNKHRLQDLMDPNVKVRYGDTEIKGREHVAKELKKLVDTMHIEIDYKSMSAEGNHATLTAEVVVQVNGRPIKFRMHVQVQFENGKIKELVYRFSEDAQKKMDG | 1.53 |
| DTRANEIWQDIVQALQTGDHERAIRLADPNVHFKVGDREVHGMTQFAHKQAQRHREARIELRVHSVRDRGDHVTVHYEMVVNVDGNPVKNTVTIYIVMRNGKLRSVEVSVDPRDVKRMRS | 0.108 |
| DEQDQAKKFNDEVRKIFETGNFRQFARLLDKNVTAEVGDQEVHGKEQAHKWAEDVWRTFDHIHYNMVDVDVENGRVEVHVQLTYDHNGTTERRTYVMELKLSNGRLKIVHMKQG | 0.809 |
| DEEAAKKVKTLVEHGDFQQMARNFDEDARVVIGDRVVHGREQAIEAMRRFDEAVDHQEVKSVTSSGNKVKFNIQAHVDGKTVRMIVVIEMHNGKLKMVRFDATSEDLRRILKRSLG | 1.27 |
| DEELQKMVEQFFRNEQNGNRDQLKRLADPNVNFQYGDKTIHGMDTFLQRQRERHEDSRQDFKSIDMKVQGDKVRVTAVLEQETDGQPERFRREMTVEAHNGKIKSVNVQHSQ | -0.082 |
| DDNLNRKVKKFWKVLQKGNPHEAKKYFDPNAHIVIGDQRIHGMDKFNRRMEHMKSHIRVQIDTLRMQDNGSQVDVTFEAVFNHNGRPKRYRARVRFEVHNGKAKSLTLKEDQ | 0.265 |
| DEQKERDKAKKIARNFQKNNEHRFEEMMDPNVKFVYGDKEVNGRDTYRKNLHELMTRADSVDIDHVDVRNGRVNVNLVVEVNGNRAEDRVQFTVHNGHIVKVNIDPKVMETAKS | -0.326 |
| DEEEAHELLKKVLHYTVKGNVDELRKFVKPDLKYVLGDQEHQGSQVADQVEKEIRRQGTRLEVEKAEVKGDKAELQYRFTVAGKTFTLHVRVRAKDHRVDEWKVEMTDDVKEYQKKG | 0.391 |
| DERNREIVEEYFKAIKQGDEDRYKQMVDPNVHVEVGDRNYHGREHQARWMHRLRKHMRLVFNIRSIDVSGDKVKVKLDYEEEHNGEPRTNKMTVEFKFHNGKILKIKIQTRQ | 2.08 |
| EEENSKLMEEIVKAISNGNPDRVRENMDPNARARYGDKRIHGMENILTQIERRWRQIRIQVDDVKLSVENGTINVDIQQRNDNNGQPDNFRLEASASVENGKVKEMNVVKRP | 0.014 |
